Measurements reported in publication PMC6797804, “Histone H3K23-specific acetylation by MORF is coupled to H3K14 acylation” (Nature Communications, 2019).
Ends that are not written are not given here. * marks the point of attachment. Crotonyl(E) = C/C=C/C(=O)*; Butyryl = CCCC(=O)*

T1: MORF DPF domain (residues 211–322) F287A (human, UniProt Q8WYB5 211-322, F287A)
T1 construct: MORF (KAT6B) double PHD finger (DPF), residues 211–322; also called MORFDPF F287A mutant; source: E. coli Rosetta2 (DE3) pLysS, purified (glutathione Sepharose 4B); 15N-labeled
T1 sequence (looked up): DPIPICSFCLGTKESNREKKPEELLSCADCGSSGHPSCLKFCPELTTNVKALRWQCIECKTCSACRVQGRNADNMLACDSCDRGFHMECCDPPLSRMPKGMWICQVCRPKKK

T2: MORF DPF domain (residues 211–322) F218A (human, UniProt Q8WYB5 211-322, F218A)
T2 construct: MORF (KAT6B) double PHD finger (DPF), residues 211–322; also called MORFDPF F218A mutant; source: E. coli Rosetta2 (DE3) pLysS, purified (glutathione Sepharose 4B, size exclusion)
T2 sequence (looked up): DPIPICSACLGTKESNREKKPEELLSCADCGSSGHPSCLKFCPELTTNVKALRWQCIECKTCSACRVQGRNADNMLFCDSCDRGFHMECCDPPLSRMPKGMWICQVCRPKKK

T3: MORF DPF domain (residues 211–322), wild type (human, UniProt Q8WYB5 211-322)
T3 construct: MORF (KAT6B) double PHD finger (DPF), residues 211–322; The methods say the GST tag was either cleaved with thrombin or left on; also called WT MORFDPF; DPF domain of MORF; source: E. coli Rosetta2 (DE3) pLysS, purified (glutathione Sepharose 4B, size exclusion); unlabeled or 15N-labeled
T3 sequence (looked up): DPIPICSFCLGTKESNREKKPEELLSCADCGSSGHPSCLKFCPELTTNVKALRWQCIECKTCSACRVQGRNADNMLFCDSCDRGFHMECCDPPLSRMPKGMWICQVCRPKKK


Experiments:
[1] = biological target: T1, MORF DPF domain (residues 211–322) F287A; assay: NMR titration; 1H,15N HSQC at 298 K; H3 peptides (residues 1–19) titrated into 0.1–0.25 mM 15N-labeled WT or mutated MORFDPF in 1×PBS pH 6.5, 5 mM DTT, 8–10% D2O; settings: both partners purified
[2] = biological target: T2, MORF DPF domain (residues 211–322) F218A; assay: other fluorescence titration; tryptophan fluorescence, 25 °C; 0.8–2 µM MORFDPF in PBS pH 6.5 with 5 mM DTT, increasing concentrations of H3 peptides (residues 1–19); excitation 295 nm; settings: both partners purified
[3] = biological target: T1, MORF DPF domain (residues 211–322) F287A; assay: cell-based or functional assay
[4] = biological target: T3, MORF DPF domain (residues 211–322), …; assay: other fluorescence titration; tryptophan fluorescence, 25 °C; 0.8–2 µM MORFDPF in PBS pH 6.5 with 5 mM DTT, increasing concentrations of H3 peptides (residues 1–19); excitation 295 nm; settings: both partners purified

fold decrease in binding against the WT protein [1] [fold]	binding result [2]	HAT activity of the MORFN F287A complex against the wild-type MORFN complex on H3K14cr peptide (residues 1–29), liquid HAT assay [3] [fold]	Kd [4] [nM]	Binder
~1000				ARTKQTARKSTGGKAPRKQ (peptide, UniProt P68431 2-20, looked up, histone H3 N-terminal tail, residues 1–19; source: synthetic peptide) [unmodified histone H3 peptide (residues 1–19 of H3)]
	binds			ARTKQTARKSTGGK(Butyryl)APRKQ (peptide, UniProt P68431 2-20, looked up, histone H3 N-terminal tail, residues 1–19; source: synthetic peptide) [histone H3K14bu peptide (residues 1–19 of H3)]
	binds	2	700	ARTKQTARKSTGGK(Crotonyl(E))APRKQ (peptide, UniProt P68431 2-20, looked up, histone H3 N-terminal tail, residues 1–19; source: synthetic peptide) [histone H3K14cr peptide (residues 1–19 of H3)]
